We go through 1 substance from US20110257036A1.

In the assay the target is BRCA1 protein (mouse) (mouse) (UniProt P48754). The experiment in a line: cell-based or functional assay.
Sequence of UniProt P48754 (P48754 whole entry): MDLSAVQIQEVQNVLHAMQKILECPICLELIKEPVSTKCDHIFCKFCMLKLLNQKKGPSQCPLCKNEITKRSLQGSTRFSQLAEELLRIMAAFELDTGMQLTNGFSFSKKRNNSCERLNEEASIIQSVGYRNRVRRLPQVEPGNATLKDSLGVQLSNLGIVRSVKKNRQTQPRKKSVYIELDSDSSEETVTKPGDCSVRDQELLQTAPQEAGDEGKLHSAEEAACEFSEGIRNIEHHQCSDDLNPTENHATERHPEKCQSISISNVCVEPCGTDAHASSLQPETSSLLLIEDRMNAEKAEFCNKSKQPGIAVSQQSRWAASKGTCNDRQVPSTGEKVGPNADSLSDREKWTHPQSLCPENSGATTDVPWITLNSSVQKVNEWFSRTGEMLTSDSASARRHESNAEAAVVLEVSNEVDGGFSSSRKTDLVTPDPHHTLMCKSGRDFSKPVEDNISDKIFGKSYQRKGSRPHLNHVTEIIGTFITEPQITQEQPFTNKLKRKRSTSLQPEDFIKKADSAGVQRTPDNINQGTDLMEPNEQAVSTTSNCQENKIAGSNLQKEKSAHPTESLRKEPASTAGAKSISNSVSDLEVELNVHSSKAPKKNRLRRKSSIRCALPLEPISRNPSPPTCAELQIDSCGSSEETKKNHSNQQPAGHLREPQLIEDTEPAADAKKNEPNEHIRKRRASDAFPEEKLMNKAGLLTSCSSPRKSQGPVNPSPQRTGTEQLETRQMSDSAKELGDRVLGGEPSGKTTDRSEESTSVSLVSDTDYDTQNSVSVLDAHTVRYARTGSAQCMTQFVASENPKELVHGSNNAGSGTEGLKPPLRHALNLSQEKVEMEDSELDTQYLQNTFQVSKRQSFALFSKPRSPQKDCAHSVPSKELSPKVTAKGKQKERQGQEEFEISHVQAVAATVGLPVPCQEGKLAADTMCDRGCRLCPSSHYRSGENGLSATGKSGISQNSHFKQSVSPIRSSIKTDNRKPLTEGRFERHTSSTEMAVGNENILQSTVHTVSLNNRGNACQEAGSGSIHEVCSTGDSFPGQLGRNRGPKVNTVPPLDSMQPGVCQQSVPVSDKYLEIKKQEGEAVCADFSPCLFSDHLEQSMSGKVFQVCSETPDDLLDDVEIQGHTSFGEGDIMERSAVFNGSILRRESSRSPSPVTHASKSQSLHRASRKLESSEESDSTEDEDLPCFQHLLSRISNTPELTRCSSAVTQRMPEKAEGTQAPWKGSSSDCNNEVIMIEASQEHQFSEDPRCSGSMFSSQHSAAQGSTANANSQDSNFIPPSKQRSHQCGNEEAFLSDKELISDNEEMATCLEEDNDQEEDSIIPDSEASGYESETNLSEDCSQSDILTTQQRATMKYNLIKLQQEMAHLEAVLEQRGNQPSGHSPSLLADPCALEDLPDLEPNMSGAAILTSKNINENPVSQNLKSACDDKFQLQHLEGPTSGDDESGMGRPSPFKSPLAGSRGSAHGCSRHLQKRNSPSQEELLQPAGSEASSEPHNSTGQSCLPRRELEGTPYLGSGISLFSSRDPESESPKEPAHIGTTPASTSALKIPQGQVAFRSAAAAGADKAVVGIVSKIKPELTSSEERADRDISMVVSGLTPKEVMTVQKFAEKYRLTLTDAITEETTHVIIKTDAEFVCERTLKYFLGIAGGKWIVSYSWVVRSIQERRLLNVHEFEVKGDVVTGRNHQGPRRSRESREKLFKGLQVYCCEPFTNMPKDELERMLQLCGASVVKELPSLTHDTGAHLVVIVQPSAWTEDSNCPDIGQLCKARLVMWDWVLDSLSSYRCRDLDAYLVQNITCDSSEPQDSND

Take “FANCD2 protein (mouse) (from UniProt Q80V62 1-1450)”: the co-localization of anti-FANCD2 foci with anti-BRCA1 staining (20 pachytene nuclei) amounted to 65%.
